Key:
[1] = biological target: WT JR-FL gp120 (HIV-1); test: ELISA, antigen-coated wells
[2] = biological target: HIV-1 Env of pseudovirus isolate MGRM-G-001 (HIV-1); test: cell-based or functional assay
[3] = biological target: HIV-1 Env of pseudovirus isolate MGRM-G-016 (HIV-1); test: cell-based or functional assay
[4] = biological target: HIV-1 Env of pseudovirus isolate MGRM-G-027 (HIV-1); test: cell-based or functional assay
[5] = biological target: HIV-1 Env of pseudovirus isolate MGRM-G-015 (HIV-1); test: cell-based or functional assay
[6] = biological target: envelope of aMLV pseudovirus (negative control); test: cell-based or functional assay
[7] = biological target: HIV-1 Env of pseudovirus isolate MGRM-G-006 (HIV-1); test: cell-based or functional assay
[8] = biological target: HIV-1 Env of pseudovirus isolate MGRM-G-017 (HIV-1); test: cell-based or functional assay
[9] = biological target: HIV-1 Env of pseudovirus isolate MGRM-G-014 (HIV-1); test: cell-based or functional assay
[10] = biological target: HIV-1 Env of pseudovirus isolate MGRM-G-009 (HIV-1); test: cell-based or functional assay
[11] = biological target: HIV-1 Env of pseudovirus isolate MGRM-G-013 (HIV-1); test: cell-based or functional assay
[12] = biological target: HIV-1 Env of pseudovirus isolate MGRM-G-004 (HIV-1); test: cell-based or functional assay
[13] = biological target: HIV-1 Env of pseudovirus isolate MGRM-G-019 (HIV-1); test: cell-based or functional assay
[14] = biological target: HIV-1 Env of pseudovirus isolate MGRM-G-011 (HIV-1); test: cell-based or functional assay
[15] = biological target: HIV-1 MGRM-C-028 Env (pseudovirus) (HIV-1); test: cell-based or functional assay
[16] = biological target: HIV-1 APV6 Env (pseudovirus) (HIV-1); test: cell-based or functional assay
[17] = biological target: HIV-1 MGRM-C-026 Env (pseudovirus) (HIV-1); test: cell-based or functional assay
[18] = biological target: HIV-1 JRCSF Env (pseudovirus) (HIV-1) (UniProt P20871); test: cell-based or functional assay
[19] = biological target: HIV-1 93IN905 Env (pseudovirus) (HIV-1); test: cell-based or functional assay
[20] = biological target: HIV-1 92RW020 Env (pseudovirus) (HIV-1); test: cell-based or functional assay
[21] = biological target: HIV-1 92UG024 Env (pseudovirus) (HIV-1); test: cell-based or functional assay
[22] = biological target: HIV-1 92UG005 Env (pseudovirus) (HIV-1); test: cell-based or functional assay
[23] = biological target: HIV-1 94UG103 Env (pseudovirus) (HIV-1); test: cell-based or functional assay
[24] = biological target: HIV-1 MGRM-D-018 Env (pseudovirus) (HIV-1); test: cell-based or functional assay
[25] = biological target: HIV-1 92TH021 Env (pseudovirus) (HIV-1); test: cell-based or functional assay
[26] = biological target: HIV-1 CMU02 Env (pseudovirus) (HIV-1); test: cell-based or functional assay
[27] = biological target: HIV-1 NL43 Env (pseudovirus) (HIV-1); test: cell-based or functional assay
[28] = biological target: HIV-1 MGRM-A-010 Env (pseudovirus) (HIV-1); test: cell-based or functional assay
[29] = biological target: HIV-1 MGRM-C-027 Env (pseudovirus) (HIV-1); test: cell-based or functional assay

5136_H01 (PGT-131) (antibody)
EC50 [1]: 0.4 µg/mL
IC50 (µg/mL), pseudovirus neutralization [2]: 0.404 µg/mL
IC50 (µg/mL), pseudovirus neutralization [3]: > 50 µg/mL
IC50 (µg/mL), pseudovirus neutralization [4]: 2.9 µg/mL
IC50 (µg/mL), pseudovirus neutralization [5]: > 50 µg/mL
IC50 (µg/mL), pseudovirus neutralization [6]: > 50 µg/mL
IC50 (µg/mL), pseudovirus neutralization [7]: > 50 µg/mL
IC50 (µg/mL), pseudovirus neutralization [8]: > 50 µg/mL
IC50 (µg/mL), pseudovirus neutralization [9]: 4.31 µg/mL
IC50 (µg/mL), pseudovirus neutralization [10]: > 50 µg/mL
IC50 (µg/mL), pseudovirus neutralization [11]: > 50 µg/mL
IC50 (µg/mL), pseudovirus neutralization [12]: > 50 µg/mL
IC50 (µg/mL), pseudovirus neutralization [13]: > 50 µg/mL
IC50 (µg/mL), pseudovirus neutralization [14]: > 50 µg/mL

5343_B08 (PGT-135) (antibody)
EC50 [1]: 0.1 µg/mL
IC50 (neutralizing activity, pseudovirus) [15]: 2.16 µg/mL
IC50 (neutralizing activity, pseudovirus) [16]: > 10 µg/mL
IC50 (neutralizing activity, pseudovirus) [17]: 0.0123 µg/mL
IC50 (µg/mL), pseudovirus neutralization [2]: 0.393 µg/mL
IC50 (µg/mL), pseudovirus neutralization [3]: > 50 µg/mL
IC50 (µg/mL), pseudovirus neutralization [4]: 0.062 µg/mL
IC50 (µg/mL), pseudovirus neutralization [5]: > 50 µg/mL
IC50 (neutralizing activity, pseudovirus) [18]: 0.113 µg/mL
IC50 (µg/mL), pseudovirus neutralization [6]: > 50 µg/mL
IC50 (neutralizing activity, pseudovirus) [19]: 0.0183 µg/mL
neutralization IC50 (pseudovirus) [20]: 0.157 µg/mL
IC50 (neutralizing activity, pseudovirus) [21]: 0.0139 µg/mL
IC50 (µg/mL), pseudovirus neutralization [7]: > 50 µg/mL
IC50 (neutralizing activity, pseudovirus) [22]: > 10 µg/mL
IC50 (µg/mL), pseudovirus neutralization [8]: 0.137 µg/mL
IC50 (µg/mL), pseudovirus neutralization [9]: > 50 µg/mL
IC50 (µg/mL), pseudovirus neutralization [10]: > 50 µg/mL
IC50 (neutralizing activity, pseudovirus) [23]: > 10 µg/mL
IC50 (µg/mL), pseudovirus neutralization [11]: > 50 µg/mL
IC50 (neutralizing activity, pseudovirus) [24]: 0.0433 µg/mL
IC50 (neutralizing activity, pseudovirus) [25]: > 10 µg/mL
IC50 (µg/mL), pseudovirus neutralization [12]: > 50 µg/mL
IC50 (neutralizing activity, pseudovirus) [26]: > 10 µg/mL
IC50 (µg/mL), pseudovirus neutralization [13]: 0.145 µg/mL
IC50 (neutralizing activity, pseudovirus) [27]: 6.79 µg/mL
IC50 (neutralizing activity, pseudovirus) [28]: > 10 µg/mL
IC50 (µg/mL), pseudovirus neutralization [14]: > 50 µg/mL
IC50 (neutralizing activity, pseudovirus) [29]: > 10 µg/mL

— patent US20250320281A1
